Results: article PMC2756588

T1: Sla1-3, P32790
T1 sequence (P32790 344-424, looked up): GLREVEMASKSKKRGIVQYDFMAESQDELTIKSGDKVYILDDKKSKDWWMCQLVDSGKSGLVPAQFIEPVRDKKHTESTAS

T2: Bbc1, P47068
T2 sequence (P47068 1-78, looked up): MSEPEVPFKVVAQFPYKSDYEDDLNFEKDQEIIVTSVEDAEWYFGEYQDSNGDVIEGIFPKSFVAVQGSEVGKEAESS

T3: Boi2, P39969
T3 sequence (P39969 32-116, looked up): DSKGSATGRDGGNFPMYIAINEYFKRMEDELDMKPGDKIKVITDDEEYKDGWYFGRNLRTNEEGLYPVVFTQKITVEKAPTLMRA

T4: Cdc25, P04821
T4 sequence (P04821 50-136, looked up): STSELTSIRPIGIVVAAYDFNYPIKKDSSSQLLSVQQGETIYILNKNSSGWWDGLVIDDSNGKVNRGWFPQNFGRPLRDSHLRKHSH

T5: Myo5, Q04439
T5 sequence (Q04439 1072-1160, looked up): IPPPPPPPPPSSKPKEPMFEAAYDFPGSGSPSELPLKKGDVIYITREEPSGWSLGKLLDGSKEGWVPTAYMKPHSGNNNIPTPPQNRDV

T6: Bzz1-1, P38822
T6 sequence (P38822 478-572, looked up): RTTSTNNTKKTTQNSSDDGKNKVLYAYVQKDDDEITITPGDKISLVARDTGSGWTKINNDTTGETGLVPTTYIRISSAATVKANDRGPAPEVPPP

T7: Lsb4, P32793
T7 sequence (P32793 402-468, looked up): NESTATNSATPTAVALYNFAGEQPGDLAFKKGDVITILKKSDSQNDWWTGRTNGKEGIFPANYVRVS

T8: Sla1-2, P32790
T8 sequence (P32790 60-140, looked up): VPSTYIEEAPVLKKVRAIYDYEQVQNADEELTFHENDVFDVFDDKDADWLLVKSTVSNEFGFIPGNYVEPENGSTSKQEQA

T9: Bzz1-2, P38822
T9 sequence (P38822 568-633, looked up): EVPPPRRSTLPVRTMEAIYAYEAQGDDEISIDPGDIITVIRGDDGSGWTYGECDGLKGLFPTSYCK

T10: Nbp2, Q12163
T10 sequence (Q12163 103-180, looked up): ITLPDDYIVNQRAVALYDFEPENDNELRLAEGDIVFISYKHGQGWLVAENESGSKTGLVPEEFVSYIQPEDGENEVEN

T11: Fus1, P11710
T11 sequence (P11710 432-512, looked up): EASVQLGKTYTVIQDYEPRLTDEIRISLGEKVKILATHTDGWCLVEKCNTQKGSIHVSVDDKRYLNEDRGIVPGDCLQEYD

T12: Cyk3, Q07533
T12 sequence (Q07533 1-83, looked up): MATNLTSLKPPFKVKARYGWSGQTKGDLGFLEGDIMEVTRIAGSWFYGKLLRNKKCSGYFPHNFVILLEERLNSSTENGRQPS

T13: Lsb3, P43603
T13 sequence (P43603 385-451, looked up): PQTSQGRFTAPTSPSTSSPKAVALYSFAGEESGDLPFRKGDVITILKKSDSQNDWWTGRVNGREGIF

T14: Lsb1, P53281
T14 sequence (P53281 45-122, looked up): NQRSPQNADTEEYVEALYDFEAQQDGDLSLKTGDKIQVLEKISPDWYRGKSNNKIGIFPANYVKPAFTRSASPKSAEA

T15: Pex13, P80667
T15 sequence (P80667 295-386, looked up): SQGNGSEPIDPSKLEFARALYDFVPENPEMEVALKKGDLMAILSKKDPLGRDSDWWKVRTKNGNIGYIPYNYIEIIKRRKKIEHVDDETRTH

T16: Boi1, P38041
T16 sequence (P38041 1-86, looked up): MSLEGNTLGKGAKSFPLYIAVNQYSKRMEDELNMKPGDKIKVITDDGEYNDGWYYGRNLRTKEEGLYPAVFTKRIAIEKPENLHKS

T17: Hse1, P38753
T17 sequence (P38753 208-285, looked up): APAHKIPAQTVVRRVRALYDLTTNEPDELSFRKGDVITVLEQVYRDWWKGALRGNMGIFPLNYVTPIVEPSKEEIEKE

T18: Abp1, P15891
T18 sequence (P15891 535-592, looked up): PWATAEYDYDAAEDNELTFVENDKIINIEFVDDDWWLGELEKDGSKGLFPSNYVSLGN

T19: Pin3, Q06449
T19 sequence (Q06449 53-122, looked up): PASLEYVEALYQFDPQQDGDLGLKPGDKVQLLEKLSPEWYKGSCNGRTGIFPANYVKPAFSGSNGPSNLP

T20: Bud14, P27637
T20 sequence (P27637 247-328, looked up): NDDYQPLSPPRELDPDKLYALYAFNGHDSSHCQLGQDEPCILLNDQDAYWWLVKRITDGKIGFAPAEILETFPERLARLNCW

T21: Hof1, Q05080
T21 sequence (Q05080 590-669, looked up): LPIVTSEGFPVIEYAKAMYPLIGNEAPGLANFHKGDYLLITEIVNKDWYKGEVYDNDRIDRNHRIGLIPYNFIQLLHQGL

B1: unnamed (peptide)
chain: VTHRLRISIPGITGR
B2: unnamed (peptide)
chain: GTIARPLFLVVLFFI
B3: unnamed (peptide)
chain: NAGIRPKFILALNDE
B4: unnamed (peptide)
chain: HHKRRPTTIDVPGLT
B5: unnamed (peptide)
chain: RLSFFFPLDPAYIRN
B6: unnamed (peptide)
chain: LTRRFPFLFPFDTRM

Biological target: T1, Sla1-3, P32790
Assay: SPOT array
Conditions: median of control spots 5475

SPOT intensity	Binder
0	B1
0	B2
2	B3
4	B4
113	B5
129	B6

Biological target: T2, Bbc1, P47068
Assay: SPOT array
Conditions: median of control spots 796

SPOT intensity	Binder
30	B1
0	B2
24	B3
2	B4
12	B5
69	B6

Biological target: T3, Boi2, P39969
Assay: SPOT array
Conditions: median of control spots 1161

SPOT intensity	Binder
0	B1
1	B2
2	B3
1	B4
0	B5
0	B6

Biological target: T4, Cdc25, P04821
Assay: SPOT array
Conditions: median of control spots 969

SPOT intensity	Binder
19	B1
18	B2
22	B3
42	B4
28	B5
21	B6

Biological target: T5, Myo5, Q04439
Assay: SPOT array
Conditions: median of control spots 471

SPOT intensity	Binder
11	B1
0	B2
0	B3
4	B4
0	B5
0	B6

Biological target: T6, Bzz1-1, P38822
Assay: SPOT array
Conditions: median of control spots 4446

SPOT intensity	Binder
0	B1
0	B2
2	B3
0	B4
0	B5
3	B6

Biological target: T7, Lsb4, P32793
Assay: SPOT array
Conditions: median of control spots 397

SPOT intensity	Binder
22	B1
0	B2
0	B3
5	B4
0	B5
4	B6

Biological target: T8, Sla1-2, P32790
Assay: SPOT array
Conditions: median of control spots 712

SPOT intensity	Binder
4	B1
0	B2
1	B3
2	B4
0	B5
1	B6

Biological target: Sho1, P40073
Sequence (P40073 287-367): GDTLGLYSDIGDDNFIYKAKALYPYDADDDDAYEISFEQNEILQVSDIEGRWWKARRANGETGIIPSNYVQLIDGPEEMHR
Assay: SPOT array
Conditions: median of control spots 1148

SPOT intensity	Binder
180	B1
0	B2
31	B3
67	B4
68	B5
57	B6

Biological target: Myo3, P36006
Assay: SPOT array
Conditions: median of control spots 468

SPOT intensity	Binder
13	B1
1	B2
0	B3
7	B4
4	B5
4	B6

Biological target: T9, Bzz1-2, P38822
Assay: SPOT array
Conditions: median of control spots 4538

SPOT intensity	Binder
0	B1
0	B2
6	B3
13	B4
3	B5
3	B6

Biological target: T10, Nbp2, Q12163
Assay: SPOT array
Conditions: median of control spots 357

SPOT intensity	Binder
72	B1
0	B2
2	B3
1	B4
21	B5
16	B6

Biological target: T11, Fus1, P11710
Assay: SPOT array
Conditions: median of control spots 1200

SPOT intensity	Binder
14	B1
9	B2
0	B3
180	B4
159	B5
100	B6

Biological target: T12, Cyk3, Q07533
Assay: SPOT array
Conditions: median of control spots 1451

SPOT intensity	Binder
0	B1
1	B2
1	B3
0	B4
1	B5
3	B6

Biological target: T13, Lsb3, P43603
Assay: SPOT array
Conditions: median of control spots 406

SPOT intensity	Binder
8	B1
0	B2
0	B3
3	B4
0	B5
0	B6

Biological target: GST
Assay: SPOT array
Conditions: median of control spots 978

SPOT intensity	Binder
1	B1
1	B2
0	B3
0	B4
1	B5
0	B6

Biological target: T14, Lsb1, P53281
Assay: SPOT array
Conditions: median of control spots 388

SPOT intensity	Binder
382	B1
0	B2
0	B3
1	B4
0	B5
0	B6

Biological target: T15, Pex13, P80667
Assay: SPOT array
Conditions: median of control spots 1341

SPOT intensity	Binder
20	B1
11	B2
10	B3
18	B4
21	B5
16	B6

Biological target: T16, Boi1, P38041
Assay: SPOT array
Conditions: median of control spots 1162

SPOT intensity	Binder
0	B1
4	B2
8	B3
2	B4
6	B5
6	B6

Biological target: T17, Hse1, P38753
Assay: SPOT array
Conditions: median of control spots 1727

SPOT intensity	Binder
5	B1
0	B2
2	B3
3	B4
91	B5
126	B6

Biological target: Bem1-2, P29366
Sequence (P29366 139-227): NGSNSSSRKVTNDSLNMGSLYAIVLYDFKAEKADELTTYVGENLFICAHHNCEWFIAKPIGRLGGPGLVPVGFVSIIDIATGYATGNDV
Assay: SPOT array
Conditions: median of control spots 4347

SPOT intensity	Binder
4	B1
1	B2
0	B3
28	B4
43	B5
61	B6

Biological target: T18, Abp1, P15891
Assay: SPOT array
Conditions: median of control spots 935

SPOT intensity	Binder
225	B1
0	B2
16	B3
26	B4
28	B5
18	B6

Biological target: Rvs167, P39743
Sequence (P39743 419-482): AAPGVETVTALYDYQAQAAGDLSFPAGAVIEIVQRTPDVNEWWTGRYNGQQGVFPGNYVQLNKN
Assay: SPOT array
Conditions: median of control spots 2707

SPOT intensity	Binder
0	B1
0	B2
4	B3
0	B4
0	B5
0	B6

Biological target: T19, Pin3, Q06449
Assay: SPOT array
Conditions: median of control spots 2171

SPOT intensity	Binder
46	B1
3	B2
3	B3
28	B4
13	B5
18	B6

Biological target: T20, Bud14, P27637
Assay: SPOT array
Conditions: median of control spots 956

SPOT intensity	Binder
12	B1
8	B2
26	B3
8	B4
12	B5
21	B6

Biological target: Bem1-1, P29366
Sequence (P29366 55-141): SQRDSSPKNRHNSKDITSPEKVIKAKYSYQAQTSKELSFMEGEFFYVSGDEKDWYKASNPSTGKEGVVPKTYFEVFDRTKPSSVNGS
Assay: SPOT array
Conditions: median of control spots 4282

SPOT intensity	Binder
2	B1
0	B2
0	B3
22	B4
0	B5
1	B6

Biological target: T21, Hof1, Q05080
Assay: SPOT array
Conditions: median of control spots 4086

SPOT intensity	Binder
0	B1
0	B2
1	B3
6	B4
48	B5
116	B6
